Results as given in article PMC8680157.

Key:
[1] = target: fluorescently labelled nucleosome core particle (NCP), non-ubiquitylated (human) (UniProt P68431); assay: fluorescence polarisation
[2] = target: fluorescently labelled nucleosome core particle ubiquitylated at H2A K13 and K15 (human) (UniProt P68431); assay: fluorescence polarisation

GST-tagged BARD1 (ARD–BRCT), residues 415–777, wild type, sequence (Q99728 415-777): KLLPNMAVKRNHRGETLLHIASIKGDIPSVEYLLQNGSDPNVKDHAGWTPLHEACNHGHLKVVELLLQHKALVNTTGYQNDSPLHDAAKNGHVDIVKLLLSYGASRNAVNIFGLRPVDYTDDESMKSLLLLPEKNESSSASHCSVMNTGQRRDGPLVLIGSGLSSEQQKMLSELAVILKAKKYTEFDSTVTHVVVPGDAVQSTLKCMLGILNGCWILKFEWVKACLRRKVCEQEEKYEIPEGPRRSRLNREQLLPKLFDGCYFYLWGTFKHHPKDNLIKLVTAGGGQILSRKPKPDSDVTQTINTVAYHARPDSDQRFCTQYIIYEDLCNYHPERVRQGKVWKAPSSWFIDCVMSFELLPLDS

| Kd [1] [µM] | Kd [2] [nM] | Substance |
| --- | --- | --- |
| 8 | – | BRCA1^R–BARD1^R, fusion of BRCA1 (residues 1–100) and BARD1 (residues 26–122) (from UniProt P38398 1-100; Q99728 26-122) (enzyme) |
| – | 200 | GST-tagged BARD1 (ARD–BRCT), residues 415–777, wild type (from UniProt Q99728 415-777) (domain or fragment) |
| 0.06 | 20 | BRCA1^R–BARD1^Long, BRCA1 (residues 1–100)–BARD1 (residues 26–777) (from UniProt P38398 1-100; Q99728 26-777) (enzyme) |
